{"source": "patent US20240042051A1", "about": "(Novartis, published 2024)", "binders": {"B1": {"name": "NY938 (antibody, human IgG1, kappa, V domains shown)", "VH": "QVQLVQSGAEVKKPGASVKVSCKASGYTFTEYTMHWVRQAPGQGLEWMGGINPDTGDTSYNQKFTGRATLTVDKSTSTAYMELSSLRSEDTAVYYCARAQFWTTPRFAYWGQGTLVTVSS", "VL": "DIQMTQSPSSLSASVGDRVTITCKASQDVGTAVAWYQQKPGKVPKLLIYWASTRHTGVPSRFSGSGSGTDFTLTISSLQPEDVATYYCQQYSTYPITFGQGTKLEIKR", "notes": "also called anti-CD48 antibody NY938; NY938 IgG"}, "B2": {"name": "NY920 (antibody, human IgG1, kappa, V domains shown)", "VH": "EVQLLESGGGLVQPGGSLRLSCAASGFTFSSFAMSWVRQAPGKGLEWVSAISGFGGSTYYADSVKGRFTISRDNSKNTLYLQMNSLRAEDTAVYYCARQFWEDQPFYFDYWGQGTLVTVSS", "VL": "not shown", "notes": "also called anti-CD48 antibody NY920; candidate antibody NY920"}, "B3": {"name": "humanized CD48A (antibody, V domains shown)", "VH": "QVQLVQSGSELKKPGASVKVSCKASGYTFTDFGMNWVRQAPGQGLEWMGWINTFTGEPSYGNVFKGRFVFSLDTSVSTAYLQISSLKAEDTAVYYCARRHGNGNVFDSWGQGTLVTVSS", "VL": "EIVLTQSPDFQSVTPKEKVTITCRASQSIGSNIHWYQQKPDQSPKLLIKYTSESISGVPSRFSGSGSGTDFTLTINSLEAEDAATYYCQQSNSWPLTFGGGTKVEIKR", "notes": "Murine CD48A is clone MEM-102; also called control antibody CD48A"}}, "key": {"[1]": {"target": "T1, Human CD48 (recombinant, humanCD48 aa29-220) (human, UniProt P09326 29-220)", "T1 construct": "SPR analyte in solution; also called analyte human CD48; not shown: C-terminal tag (hFc1P, APP6-Avi or His)", "T1 sequence": "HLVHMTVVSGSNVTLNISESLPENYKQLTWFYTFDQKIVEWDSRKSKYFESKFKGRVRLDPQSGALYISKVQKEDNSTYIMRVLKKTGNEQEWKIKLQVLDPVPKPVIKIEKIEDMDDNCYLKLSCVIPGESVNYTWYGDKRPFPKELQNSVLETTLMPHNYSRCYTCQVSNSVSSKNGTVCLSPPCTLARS", "assay": "SPR Biacore T200, antibody captured on protein A chip, CD48 as analyte, 25 °C, 1:1 model", "experimental": "The anti-CD48 antibodies were diluted at 5 μg/ml and injected on flow cells 2 and 4 for 20 sec at 10 μl/min. Capture level for all antibodies was 370-440 RU. Flow cells 1 and 3 were left blank (no antibody captured) and used as a reference surface. Human and cynomolgus CD48 served as analytes in solution. […] After each cycle of antibody capture and analyte injection, the chip surface was regenerated with 10 mM Glycine-HCl pH 1.5 (Cytiva, ordering #BR100354) for 2×30 s at a flow rate of 50 μl/min. Three runs with duplicate measurements and buffer blank injections were performed. Measurements were executed at 25° C. and data collected at a rate of 10 Hz.\n[…] The raw data were double referenced, i.e. the response of the measuring flow cells was corrected for the response of the reference flow cells (no antibody captured), and in a second step the response of a blank injection (buffer) was subtracted. Finally, the sensorgrams were fitted by applying a 1:1 interaction model with a constant fit of RI (0) and a global fit for Rₘₐₓ. Kinetic rate constants (kₐ, kd) and equilibrium dissociation constants (KD) were calculated. Data were processed separately for each run. The generated values were used to calculate average values and standard deviations of the respective equilibrium dissociation constants and the kinetic rate constants."}, "[2]": {"target": "T2, hCD48EC:mouse-Ig construct #2248 (ENYKQ modified into GSSKQ) (human, UniProt P09326 27-220, limits assumed)", "T2 construct": "extracellular domain; not shown: mouse IgG1 part of the fusion", "T2 sequence (looked up)": "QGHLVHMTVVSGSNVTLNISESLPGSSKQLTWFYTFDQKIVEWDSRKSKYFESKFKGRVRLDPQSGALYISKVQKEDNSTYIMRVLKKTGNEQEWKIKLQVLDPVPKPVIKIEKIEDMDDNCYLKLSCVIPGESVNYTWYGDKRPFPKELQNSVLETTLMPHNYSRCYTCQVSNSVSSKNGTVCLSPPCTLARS", "assay": "ELISA, HEK293T culture supernatant (1:10) with the CD48-mouse Ig construct, antibody at 25, 250 and 500 ng/mL, detection goat anti-mouse IgG (H+L) HRP, Mean OD450-570", "text": "Non-mutated CD48-mouse IgG fusion peptide served as positive control and non-transfected cell supernatant as negative control."}}, "data": [{"binder": "B1", "values": [{"measurement": "Kd", "setting": "[1]", "value": 0.5, "unit": "nM"}, {"measurement": "koff", "setting": "[1]", "value": 0.00013, "unit": "s⁻¹"}, {"measurement": "kon", "setting": "[1]", "value": 250000, "unit": "M⁻¹ s⁻¹"}]}, {"binder": "B2", "values": [{"measurement": "Kd", "setting": "[1]", "value": 10, "unit": "nM"}, {"measurement": "koff", "setting": "[1]", "value": 0.00074, "unit": "s⁻¹"}, {"measurement": "kon", "setting": "[1]", "value": 72000, "unit": "M⁻¹ s⁻¹"}]}, {"binder": "B3", "values": [{"measurement": "binding result", "setting": "[2]", "value": "no binding (tested: 500 ng/mL)"}]}]}
